Laboratory results from article PMC10002499 (2023).

Biological target: PDCD6 (ALG-2) construct (rat, UniProt G3V7W1 1-191)
Experiment: SPR; 0 added Ca2+

Chain of PDCD6 (ALG-2) construct (G3V7W1 whole entry): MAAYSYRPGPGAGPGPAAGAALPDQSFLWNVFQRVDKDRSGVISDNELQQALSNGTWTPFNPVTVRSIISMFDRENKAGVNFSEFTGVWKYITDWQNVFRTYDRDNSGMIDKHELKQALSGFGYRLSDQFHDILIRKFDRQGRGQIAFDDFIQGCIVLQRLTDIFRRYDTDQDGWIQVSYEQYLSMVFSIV

Kd: 160 nM
B1: dysferlin extended C2DE region (aa 1284-1576) (domain or fragment)
chain: AIHHIPGFEMHETSRILDETEDTDLPYPPPQREANIYMVPQNIKPALQRTAIEILAWGLRNIKSYQMASVSSPSLVVECGGQTVQSCVIRNLRKNPNFDVCTLFMEVMLPREDLYCPPIVVKVIDNRQFGRRPVVGQCTIRSLENFLCDPYSAESPSPQGGPDDVSLLSPGEDVLIDIDDKEPLIPVQEEEFIDWWSKFFASIGEREKCGSYLEKDFDTLKVYDTQLENVEAFGGLSDFCNTFKLYRGKTQEDTEDPSVIGEFKGLFKIYPLPEDPAIPMPPRQFHQLAAQGP
